Data from patent US20220031822A1 (Janssen / Centocor, published 2022).
Numbering of substitutions follows the chain as printed.

B1: G11 BCMA-specific FN3 domain (designed binder)
chain: MLPAPKNLVVSRITEDSARLSWTAPDAAFDSFWIRYVERLVWGEAIHLHVPGSERSYDLTGLKPGTEYVVVISGVKGGWESTPLVAPFTT
notes: Detected with an anti-His mAb, so the protein tested carried a His tag
B2: B03 BCMA-specific FN3 domain (designed binder)
chain: MLPAPKNLVVSRITEDSARLSWTAPDAAFDSFPIRYIETLIWGEAIWLDVPGSERSYDLTGLKPGTEYTVVIDGVKGGGRSQPLVATFTT
notes: as for B1
B3: A08 BCMA-specific FN3 domain (designed binder)
chain: B2 chain with T69A, D73T, G79R, R80F, Q82S, T87S
notes: as for B1
B4: C08 BCMA-specific FN3 domain (designed binder)
chain: B2 chain with D49Y, D73S, G79E, R80S, Q82Y, V85I, T87A
notes: as for B1
B5: D10 BCMA-specific FN3 domain (designed binder)
chain: B2 chain with D49Y, T87S
notes: as for B1
B6: F11 BCMA-specific FN3 domain (designed binder)
chain: B2 chain with I13V, T69V, G79D, R80H, Q82K
notes: as for B1
B7: A12 BCMA-specific FN3 domain (designed binder)
chain: MLPAPKNLVVSRITEDSARLSWTAPDAAFDSFTIKYIERATWGEAIWLNVPGSERSYDLTGLKPGTEYVVLINGVKGGPESWPLIAHFTT
notes: as for B1
B8: F01 BCMA-specific FN3 domain (designed binder)
chain: MLPAPKNLVVSRVTEDSARLSWTAPDAAFDSFIIVYRENIETGEAIVLTVPGSERSYDLTGLKPGTEYYVQIAGVKGGNISFPLSAIFTT
notes: as for B1
B9: D08 BCMA-specific FN3 domain (designed binder)
chain: B8 chain with R12H, G61D
notes: as for B1
B10: G10 BCMA-specific FN3 domain (designed binder)
chain: B8 chain with T23I
notes: as for B1
B11: E09 BCMA-specific FN3 domain (designed binder)
chain: MLPAPKNLVVSRVTEDSARLSWTAPDAAFDSFRIRYVEVIAWGEAIWLVVPGSERSYDLTGLKPGTEYVVVIDGVKGGKTSIPLIAHFTT
notes: as for B1
B12: E02 BCMA-specific FN3 domain (designed binder)
chain: MLPAPKNLVVSRVTEDSARLSWTAPDAAFDSFVIVYSEPDVCGEAIVLTVPGSERSYDLTGLKPGTEYWVRIAGVKGGDFSRPLSAIFTT
notes: as for B1

molecular target: T1, human BCMA (B cell maturation antigen) (human, UniProt Q02223 1-184); assay: flow cytometry, FN3 domain titration on HEK293F cells transiently expressing human BCMA, anti-His Alexa-488 detection, PRISM one-site specific binding fit; design: Bmax: unit not given here
T1 construct: whole, on cells; also called hBCMA; TNFRSF17
T1 sequence (looked up): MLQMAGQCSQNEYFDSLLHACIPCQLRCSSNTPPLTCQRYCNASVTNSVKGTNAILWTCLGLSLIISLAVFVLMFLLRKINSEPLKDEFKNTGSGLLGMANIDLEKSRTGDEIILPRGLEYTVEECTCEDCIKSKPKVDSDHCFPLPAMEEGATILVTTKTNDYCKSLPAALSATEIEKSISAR
Description: 50 uL secondary antibody in FACS buffer was added to the wells. Anti-His mAb was added at a 1/100 dilution to all of the wells except for the FACS buffer only negative control wells. The plates were incubated on ice for 1 hr. Afterwards, cells were collected and combined from two wells from all four plates to check cell count and viability using Trypan blue on the Vi-Cell system. The cell count was about 67,500/well at 96.6% viability. The cell count of the control cells that were kept on ice for comparison was 1×10⁶/mL at 95.1% viability.
After 1 hr of staining, the plates were spun at 1200 rpm for 5 min at 4° C. to pellet the cells. Buffer was discarded by inverting the plates, and 100 uL FACS buffer were added to the wells. The FACS buffer wash was repeated two more times. The plates were spun at 1200 rpm for 5 min at 4° C. to pellet the cells, and buffer was discarded by inverting the plates.
Cells were resuspended in 30 uL Intellicyt buffer (FACS buffer, 0.1% Pluronic Acid, 1 mM EDTA, SytoX Red Live/Dead Stain at a 1:1000 dilution) and mixed gently by vortexing the plates. The plates were kept on ice and read on an Intellicyt plate reader. Cells were gated in the following order: (a) cells, (b) single cells, (c) viable cells. The Geometric Mean of Alexa 488 channel was calculated, and the percentage of viable single cells was calculated.

Binder | Bmax | Kd [nM]
B1 | 60700 | 1.6
B2 | 60900 | 8.7
B3 | 101000 | 3000
B4 | 57900 | 23
B5 | 57800 | 4.9
B6 | 58200 | 4.2
B7 | 51400 | 22
B8 | 51600 | 520
B9 | 61200 | 230
B10 | 72600 | 76
B11 | 73600 | 130
B12 | 56700 | 6.5
